Data on one molecule can be found in article PMC12822431, “A Pan‐TE Map Reveals the Important Role of Transposable Elements in Gene Expression and Phenotypic Diversity in 2,311 Rapeseed Accessions”.

For the data set, the target named is T1, BnaA01G0374400ZS (MYB TF, ortholog of AT3G11280) (Brassica napus (ZS11), UniProt A0A078HEX6 1-259).
T1 sequence: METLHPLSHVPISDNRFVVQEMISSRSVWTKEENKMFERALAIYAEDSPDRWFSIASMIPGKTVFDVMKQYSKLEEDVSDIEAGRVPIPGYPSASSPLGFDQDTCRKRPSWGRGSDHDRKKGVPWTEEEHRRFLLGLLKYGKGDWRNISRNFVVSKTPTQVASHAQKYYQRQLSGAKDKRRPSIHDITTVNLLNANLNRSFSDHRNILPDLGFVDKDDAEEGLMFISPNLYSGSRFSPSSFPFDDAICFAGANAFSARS
Description: EMSA; Beyotime GS009 EMSA kit, room temperature, 20 min, 5% native polyacrylamide gel, chemiluminescent detection; buffer, salt and pH not stated. Conditions: protein: recombinant; tags: His; label: biotin; blunt.

B1: M2 (M1 with all C nucleotides mutated) (dsDNA)
DNA 1: TTTTTTTATTTATATTAAATTTATT
DNA 2: AATAAATTTAATATAAATAAAAAAA
As to B1, the binding result is “no binding”.
